Assays:
Type in all cases: biochemical
[1] = target: T1, PKC-alpha (Homo sapiens, UniProt P17252); test: In vitro kinase assay: peptide phosphorylation by PKC-alpha
T1 construct: purchased Calbiochem
Procedure: (§1) Catalytically active preparations of the kinases of interest were either purchased or prepared. Purchased and tested active kinase preparations including the following: PKC-alpha, PKC-delta, PKC-epsilon, PKC-zeta, PKC-mu, PKA, PKG from Calbiochem, ROK alpha/ROCK-II, active from Upstate Biotechnology, and AKT1 from Panvera.
(§2) The conditions of the kinase assay and the amount of active kinase used varied with the kinase and with the accuracy needed. For a typical experiment, 5-20 ng of kinase was used per well and each peptide pool was assayed in duplicate wells. Note that the absolute amount of kinase used was not usually a critical parameter, because the desired information related to specificity of the kinase not its absolute activity, and robustness of the assay depends on comparisons of the same amount of kinase on different peptides. The combination of kinase concentration and assay duration was modified to assure that the stoichiometry of peptide phosphorylation never exceeded 5%. The choice of kinase buffer depended on the kinase being analyzed. For studies of PKC, 100 mM HEPES, 0.05% Triton-X100, 1 mM CaCl2, 20 mM MgCl2, 0.2 mg/ml phosphatidyl serine (Avanti Polar Lipids), PMA 100 ng/ml was typically used. The lipid stock was prepared by transferring 3 mg phosphatidyl serine into iced mixture of 450 μl water plus 50 μl of 10% Triton-X100, sonicating 10 times on ice for 1 sec each.
(§3) The kinase reaction mixture was assembled by sequential addition to a tube held on ice of: 5 μl peptide (100 μM for final concentration of 10 μM), 15 μl of kinase (typically 5 ng/well, in appropriate kinase buffer), 30 μl of ATP (1 uCi/well of ^32P-gamma ATP in a stock of 167 μM cold ATP in the kinase buffer; for final concentration for 100 μM ATP). The mixture was rapidly warmed to desired reaction temperature (30° C. for PKC) and incubated for the desired duration (usually 10 minutes). The kinase assay was terminated by transfer to 4° C. water batch, and rapid addition of an equal volume (50 μl) of stop solution [0.1M ATP+0.1M EDTA in water, pH 8].
(§4) The peptides were then captured from the reaction mixture by transfer to a Reacti-Bind Streptavidin High Binding Capacity Coated Plates (HBC) (Pierce Biotechnology) as follows. The HBC plates were pre-rinsed three times with PBS/Tween PBS/Tween20 0.05% (PBS/Tween). Part of all of the reaction mixture was then transferred wells of a HBC plate pre-filled with 90 μl of phosphate-buffered saline (PBS); typically each aliquots of each phosphorylation reaction were transferred to duplicate HBC plates to assure accuracy by additional replication
(§5) For kinase assays done at the standard peptide concentration of 10 μM, the peptide concentration in the reaction mixture becomes 5 μM after addition of the stop solution; consequently 10 μl of the reaction (50 pMoles of peptide) was transferred to the HBC plate. More generally, the amount of reaction mixture transferred was estimated to be about 50 pMoles of peptide. […] The HBC plates were incubated for 0.5 to 1.5 hr at room temperature for complete binding of biotinylated peptides to plate-bound streptavidin. The HBC plates were then washed extensively with PBS/Tween. Five washes were done routinely and additional wash steps were added if the wash solution removed from the plate had measurable radioactivity as detected using a Geiger counter. This step is essential to obtaining a good the signal to noise ratio because the fraction of radioactivity incorporated in the peptides was a tiny fraction of the total in the reaction mixture. The wells were air-dried. A volume of 40-50 μl of microScint-20 (Packard Instruments) was added to each well. The plates were covered with stick-on film sheet. Radioactive emissions were measured in a TopCount NXT Microplate Scintillation and Luminescence Counter (Packard Instruments). Typically samples were counted for 5 minutes (or more) to improve the signal to noise ratio when counts were low. […]

[2] = target: T2, PKC-zeta (Homo sapiens, UniProt Q05513); test: In vitro kinase assay: peptide phosphorylation by PKC-zeta
T2 construct: purchased Calbiochem
T2 sequence (Q05513 1-592): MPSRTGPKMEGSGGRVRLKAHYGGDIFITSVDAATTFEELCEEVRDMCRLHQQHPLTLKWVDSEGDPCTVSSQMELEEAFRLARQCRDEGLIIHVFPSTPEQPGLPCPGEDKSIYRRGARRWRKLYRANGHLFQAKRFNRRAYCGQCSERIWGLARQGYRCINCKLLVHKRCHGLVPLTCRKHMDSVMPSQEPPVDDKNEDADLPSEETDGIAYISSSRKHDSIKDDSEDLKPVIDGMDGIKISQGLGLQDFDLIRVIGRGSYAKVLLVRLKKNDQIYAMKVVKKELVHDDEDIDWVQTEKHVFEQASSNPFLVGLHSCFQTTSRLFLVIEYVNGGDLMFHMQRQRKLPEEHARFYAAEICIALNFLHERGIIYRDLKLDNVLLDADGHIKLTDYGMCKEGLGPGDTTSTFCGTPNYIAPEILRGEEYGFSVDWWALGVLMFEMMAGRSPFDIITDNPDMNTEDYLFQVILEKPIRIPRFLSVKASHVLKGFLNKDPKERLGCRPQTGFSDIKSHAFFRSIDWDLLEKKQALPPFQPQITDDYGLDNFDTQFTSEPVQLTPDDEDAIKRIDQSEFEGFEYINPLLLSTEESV
Procedure: as §1, §2, §3, §4, §5

[3] = target: T3, PKC-epsilon (Homo sapiens, UniProt Q02156); test: In vitro kinase assay: peptide phosphorylation by PKC-epsilon; conditions: peptide concentration 1 uM
T3 construct: purchased Calbiochem
T3 sequence (Q02156 1-737): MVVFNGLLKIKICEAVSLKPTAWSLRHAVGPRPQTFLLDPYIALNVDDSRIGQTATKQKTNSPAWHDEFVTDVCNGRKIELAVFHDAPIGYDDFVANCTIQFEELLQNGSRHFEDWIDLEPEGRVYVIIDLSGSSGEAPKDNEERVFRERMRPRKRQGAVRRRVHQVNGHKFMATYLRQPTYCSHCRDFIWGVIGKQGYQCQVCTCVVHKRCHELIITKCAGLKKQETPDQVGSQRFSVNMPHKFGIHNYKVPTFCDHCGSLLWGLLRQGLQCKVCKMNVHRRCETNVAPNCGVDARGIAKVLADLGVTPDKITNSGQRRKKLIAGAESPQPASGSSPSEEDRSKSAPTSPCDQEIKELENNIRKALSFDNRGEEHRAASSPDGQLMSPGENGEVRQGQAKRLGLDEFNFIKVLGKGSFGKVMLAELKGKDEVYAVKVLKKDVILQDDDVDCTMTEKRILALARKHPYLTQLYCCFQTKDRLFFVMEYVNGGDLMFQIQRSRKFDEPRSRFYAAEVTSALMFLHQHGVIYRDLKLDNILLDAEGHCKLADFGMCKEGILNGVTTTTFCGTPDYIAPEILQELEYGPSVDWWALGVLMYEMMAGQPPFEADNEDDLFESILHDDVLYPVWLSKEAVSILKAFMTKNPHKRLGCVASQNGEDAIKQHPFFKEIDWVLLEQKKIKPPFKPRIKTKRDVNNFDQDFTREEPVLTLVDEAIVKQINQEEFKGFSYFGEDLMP
Procedure: as §1, §2, §3, §4, §5

Row | Substance | phosphorylation by PKC alpha ([1]; peptide concentration 1 uM) | phosphorylation by PKC alpha ([1]; peptide concentration 10 uM) | phosphorylation by PKC zeta ([2]; peptide concentration 1 uM) | phosphorylation by PKC zeta ([2]; peptide concentration 10 uM) | phosphorylation by PKC epsilon [3]
1 | 138 (EYLERRASRRRAV) [compound 138] | 17 | 20 | 31 | 61 | 27
2 | 139 (RPTPGDGEKRSRIKKSKKRK) [compound 139] | 39 | 44 | 1 | 1 | 24
3 | 140 (TELEGGFSRQRKRKLSFRRR) [compound 140] | 12 | 15 | 24 | 49 | 27
4 | 141 (VTDSQKRREILSRRPSYRKI) [compound 141] | 24 | 25 | 26 | 78 | 31
5 | 142 (ERHVAQKKSRLRRRASQLKI) [compound 142] | 16 | 21 | 22 | 37 | 28
6 | 143 (VRYTPYTISPYNRKGSFRKQ) [compound 143] | 38 | 19 | 22 | 79 | 21
7 | 144 (LSSMFGTLPRKSRKGSVRKQ) [compound 144] | 31 | 20 | 16 | 54 | 24
8 | 145 (ISDFGLAKKLAVGRHSFSRR) [compound 145] | 21 | 30 | 25 | 61 | 26
9 | 146 (QAQRQIKRGAPPRRSSIRNA) [compound 146] | 20 | 24 | 32 | 56 | 28
10 | 147 (RDIRQSPKRGFLRSASLGRR) [compound 147] | 13 | 16 | 28 | 34 | 26
11 | 154 (KKFFTQGWAGWRKKTSFRKP) [compound 154] | 16 | 12 | 27 | 23 | 29
12 | 155 (RWDKRRWRKIPKRPGSVHRT) [compound 155] | 10 | 12 | 19 | 6 | 26
13 | 156 (SAQITIPKDGQKRKKSLRKK) [compound 156] | 9 | 11 | 15 | 44 | 18
14 | 157 (PSPSNETPKKKKKRFSFKKS) [compound 157] | 10 | 11 | 3 | 6 | 12
15 | 158 (VQMTWSYPDEKNKRASVRRR) [compound 158] | 16 | 11 | 11 | 72 | 11
16 | 159 (LYARLARAYRRSQRASFKRA) [compound 159] | 21 | 19 | 25 | 41 | 25
17 | 160 (PFEVVWYKDKRQLRSSKKYK) [compound 160] | 9 | 7 | 15 | 57 | 13
18 | 161 (KYKAFIRIPIPTRRHTFRRQ) [compound 161] | 22 | 8 | 15 | 9 | 21
19 | 162 (KKKFSFKKPFKLSGLSFKRN) [compound 162] | 17 | 19 | 7 | 4 | 19
20 | 163 (PPRTPGWHQLQPRRVSFRGE) [compound 163] | 30 | 10 | 7 | 26 | 14
21 | 164 (TEGKMARVAWKGKRRSKARK) [compound 164] | 6 | 6 | 3 | 2 | 12
22 | 165 (TEEKSKKRKKKHRKNSRKHK) [compound 165] | 15 | 10 | 1 | 2 | 12
23 | 166 (MAQIERGEARIQRRISIKKA) [compound 166] | 22 | 7 | 2 | 9 | 10

From patent US20050064507A1, “Determining kinase specificity” (priority 2003, published 2005)
